Experimental data reported in US20080274112A1, “Nogo Receptor Antagonists” (priority 2003, published 2008).
One block for each molecule: values may come before it.

Tests used:
[1] = system: Nogo-66, MAG and myelin; assay: Blocking of Nogo-66, MAG and myelin action in vitro
[2] = system: DRG neurons; assay: Neurite outgrowth assay, myelin mixed with test protein (Example 10); type: cell-based; settings: P3-4 rat DRG; spotted mixed with CNS myelin
Method: Lab-Tek® culture slides (4 wells) were coated with 0.1 mg/ml poly-D-lysine (Sigma®). CNS myelin alone or mixed with sNogoR310, sNogoR310-Fc fusion protein, mAb 5B10 or control PBS were separately spotted as 3 μl drops. Fluorescent microspheres (Polysciences) were added to the myelin/PBS to allow later identification of the drops (Grandpre et al, Nature 403, 2000). Lab-Tek® slides were then rinsed and coated with 10 μg/ml laminin (Gibco™).
Dorsal root ganglions (DRG's) from P3-4 Sprague Dawley rat pups were dissociated with 1 mg/ml collagenase type 1 (Worthington), triturated with fire-polished Pasteur pipettes pre-plated to enrich in neuronal cells and finally plated at 23,000 cells/well on the pre-coated Labtek culture slides. The culture medium was F12 containing 5% heat inactivated donor horse serum, 5% heat inactivated fetal bovine serum and 50 ng/ml MNGF and incubated at 37° C. and 5% CO2 for 6 hours.
Slides were fixed for 20 minutes with 4% paraformaldehyde containing 20% sucrose and stained for the neuronal marker anti beta-III-tubulin (Covance TUJ1) diluted 1:500. As secondary antibody anti-mouse Alexa Fluor® 594 (Molecular Probes) was diluted 1:300 and slides were coverslipped with Gel/Mount™ (Biømeda™). 5× digital images were acquired with OpenLab™ software and analyzed by using the MetaMorph® software for quantification of neurite outgrowth.

[3] = system: rat spinal cord dorsal hemisection; assay: Intrathecal sNogoR310-Fc in rats with mid-thoracic dorsal hemisection; type: in vivo
Text: (§1) The Basso-Beattie-Bresnahan (BBB) locomotor rating scale (Basso et al., 1996, Neurotrauma 13, 343-359), the inclined plane test and the inclined grid walking test (Li and Strittmatter, 2003, J Neurosci. 2003, 23, 4219-27) were monitored in rats and mice after injury. For the inclined plane test, we measured the maximal angle to which a 50 cm×60 cm board could be angled for 5 sec without the mouse sliding off. For inclined grid walking, the mice were trained to climb a wire grid (35 cm long with 2.54 cm squares) at a slope of 45 degrees. The number of instances in which the hindpaw dropped below the grid plane was scored for each excursion from bottom to top. For the rat behavioral testing, BBB locomotor scale, grid walking and footprint analysis were performed. For grid walking, the rats were trained to walk on a wire grid (70 cm long with 2.54 cm squares), and the number of instances in which the hindpaw dropped below the grid plane was counted. For footprint analysis, the walking patterns of rat hindpaws were recorded with ink during a continuous locomotion across a 90 cm runway, and stride length on each side and stride width were calculated (Metz et al., 2000, Brain Res., 883, 165-177). All of these behavioral tests were performed by at least two individuals. Throughout the surgery, behavioral testing and histologic analysis, researchers were blind to the identity of the compound in the minipump.
We isolated spinal cord 4 mm rostral to and 4 mm caudal to the lesion site (8 mm long in total) from transgenic mice and embedded it in a glutaraldehyde-polymerized albumin matrix, and cut parasagittally on a vibratome (30 μm thick). We collected transverse sections (50 μm) from the spinal cord 5-7 mm rostral to and 5-7 mm caudal, to the injury site. For sNogoR310-Fc injection experiments in rats, the spinal cord extending from 10 mm rostral to 10 mm caudal from the lesion site was cut parasaggitally (50 μm) on a vibrating microtome. Transverse sections were collected from the spinal cord 11-16 mm rostral to and 11-16 mm caudal to the injury site. We incubated the sections with avidin-biotin-peroxidase complex and visualized the BDA tracer by nickel-enhanced diaminobenzidine HRP reaction (Grandpre, 2002, Nature, 417, 547-551). We processed some sections for serotonin immunohistochemistry (anti-5-HT antibody) by indirect immunofluoresence. To visualize the lesion area, we double-stained some sections with antibodies directed against GFAP (Sigma®, St. Louis, Mo.). We mounted, dehydrated and covered the sections with mounting medium.
We fused the ligand binding domain (27-310) of rat Nogo receptor-1 to the rat IgG1 Fc domain to promote stability and purification. We purified protein from stably transfected CHO cells. […]

[4] = system: chick neurons; assay: Neurite outgrowth assay using chick neurons; type: cell-based
[5] = system: mouse spinal cord dorsal over-hemisection; assay: Dorsal over-hemisection in gfap::sNogoR310 transgenic mice; type: in vivo
Text: as §1
We cloned the mouse sNogoR310 cDNA (corresponding to amino acids 1-310 of the Nogo receptor-1) into the NotI site of the C-3123 vector. In this vector, sNogoR310 expression is under the control of the glial fibrillary acidic protein (gfap) gene regulatory elements, which allow high level expression with enhanced secretion from reactive astrocytes at site of injury. We digested the resulting vector sequentially with AatII and SfiI and isolated the gfap::sNogoR310 construct on a 3.4 kb fragment. We microinjected this fragment into embryos to generate transgenic mice. We verified by PCR that the transgene had integrated and identified five founder lines. We crossed heterozygous males of the two founder lines with the highest expression levels to female C57BL/6J mice. We confirmed that the GFAP-positive cells express and secrete sNogoR310 in heterozygous transgenic mice by Western blot analysis using antibody raised against Nogo receptor-1.
We deeply anesthetized adult female heterozygous transgenic or littermate WT mice (10-16 weeks of age) and performed a complete laminectomy, fully exposing the dorsal part of spinal cord at T6 and T7 levels. We performed a dorsal over-hemisection at T6 with a 30-gauge needle and a pair of microscissors to completely sever the dorsal and dorsolateral corticospinal tracts (CSTs). We passed a marked needle across the dorsal part of the spinal cord several times to assure that the lesion was at a depth of 1.0 mm. We sutured the muscle layers over the laminectomies and closed the skin on the back with surgical staples. To trace the corticospinal tracts, we made a burr hole overlying cerebral cortex on the right side into the skull 14 days after spinal cord injury. We applied the tracer BDA (MW 10,000, 10% in PBS) (Molecular Probes, Eugene, Oreg.) to 4 injection sites at a depth of 0.7 mm from the cortical surface. Four weeks after injury, the mice were perfused transcardially with PBS, followed by 4% paraformaldehyde.
We investigated the integrity of descending corticospinal tracts (CST) by injecting anterograde tracer biotin dextran amine (BDA) into the right motor cortex as described in Li and Strittmatter, 2003, J. Neurosci., 23, 4219-27. In littermate WT mice, the prominent dorsal CST (dCST) is tightly bundled rostral to the lesion, and a few dorsolateral CST fibers are visible ipsilaterally. A small number of BDA-labeled short collateral sprouts project into gray matter, particularly in the ventral cord, but the sprouting is largely confined to the side of the cord contralateral to the tracer injection. […]

[6] = system: Nogo receptor-1; assay: Blocking of ligand binding to Nogo receptor-1 by soluble receptors

B1: sNogoR310-Fc: fusion protein comprising amino acids 26-310 of rat Nogo receptor-1 and a rat Fc fragment (protein)
chain: PCPGACVCYNEPKVTTSRPQQGLQAVPAGIPASSQRIFLHGNRISYVPAASFQSCRNLTILWLHSNALAGIDAAAFTGLTLLEQLDLSDNAQLRVVDPTTFRGLGHLHTLHLDRCGLQELGPGLFRGLAALQYLYLQDNNLQALPDNTFRDLGNLTHLFLHGNRIPSVPEHAFRGLHSLDRLLLHQNHVARVHPHAFRDLGRLMTLYLFANNLSMLPAEVLVPLRSLQYLRLNDNPWVCDCRARPLWAWLQKFRGSSSGVPSNLPQRLAGRDLKRLATSDLEGCA
modifications: left off: a dimerising Fc or GST
notes: fusion protein comprising amino acids 26-310 of rat Nogo receptor-1 and a rat Fc fragment
blocking of Nogo-66, MAG and myelin action [1]: blocks
protection from myelin-mediated inhibition of neurite outgrowth [2]: protected
animals with consistent forelimb-hindlimb coordination and parallel paw position ([3]; 4 weeks after injury): all 9
total collateral length of each sprout versus NEP 1-40-treated animals ([3]; distal spinal cord): twice as great
serotonin fibers versus control group ([3]; sections 11-15 mm below the lesion): twice as numerous
rubrospinal tract fibers distal to SCI ([3]; transverse sections 11-15 mm distal): many BDA-labeled RST fibers

blocking of binding of NogoA, NogoB, NogoC, MAG and OM-gp to Nogo receptor-1 [6]: block the binding
B2: sNogoR310: soluble Nogo receptor-1 polypeptide, residues 26-310 (human) or 27-310 (rat); mouse form expressed in transgenic mice (protein)
chain: CPGACVCYNEPKVTTSRPQQGLQAVPAGIPASSQRIFLHGNRISYVPAASFQSCRNLTILWLHSNALAGIDAAAFTGLTLLEQLDLSDNAQLRVVDPTTFRGLGHLHTLHLDRCGLQELGPGLFRGLAALQYLYLQDNNLQALPDNTFRDLGNLTHLFLHGNRIPSVPEHAFRGLHSLDRLLLHQNHVARVHPHAFRDLGRLMTLYLFANNLSMLPAEVLVPLRSLQYLRLNDNPWVCDCRARPLWAWLQKFRGSSSGVPSNLPQRLAGRDLKRLATSDLEGCA
protection from myelin-mediated inhibition of neurite outgrowth [2]: protected
protection in similar assay using chick neurons [4]: protective
grid climbing ([5]; 2-6 weeks post-injury): progressive improvement
BDA-labeled regenerating fibers in the rostral-caudal axis ([5]; any level 1-4 mm caudal to the lesion, each transgenic mouse): 5-15
sustainable inclined plane angle ([5]; days 7-28 after injury vs control): significantly greater
BBB scores ([5]; lines Tg08 and Tg01 vs control, 7-28 days): significantly higher
fibers on the opposite side of the spinal cord (ipsilateral to tracer injection) ([5]; rostral to dorsal hemisection): 4-12 sprouts per transverse section
sprouting density of collateral sprouts (micro densitometric measurement) ([5]; rostral to lesion, transgenic vs WT): approximately a tenfold increase
CST sprouting ([5]; secreted in transgenic mice): induces CST sprouting
serotonin fibers in ventral horn of caudal spinal cord ([5]; transgenic vs WT): much greater number
